In US20160272683A1 (Novo Nordisk, published 2016):
Numbered stars: 1 amine (or outer) side, 2 acyl side, 3 side chain; on linkers, the order of the positions; unused ones are H or OH. * marks the point of attachment. C20 diacid = O=C(O)CCCCCCCCCCCCCCCCCCC(=O)*; C18 diacid = O=C(O)CCCCCCCCCCCCCCCCC(=O)*; γGlu = O=C(O)[C@H](CCC(=O)[*:2])N[*:1]; AEEA = NCCOCCOCC(=O)O

B1: [N-terminal(C20 diacid-gGlu), des1, 4G, 15Q, 21Q, 23Y, 25H, 30S, 31G, 32T, 33Y]mimylin (peptide)
peptide: {C20 diacid-γGlu}-ASGLSTAALGRLSQELHELQTYPHTETGSGTY-NH2
SMILES: CC(C)C[C@H](NC(=O)CNC(=O)[C@H](CO)NC(=O)[C@H](C)NC(=O)CC[C@H](NC(=O)CCCCCCCCCCCCCCCCCCC(=O)O)C(=O)O)C(=O)N[C@@H](CO)C(=O)N[C@H](C(=O)N[C@@H](C)C(=O)N[C@@H](C)C(=O)N[C@@H](CC(C)C)C(=O)NCC(=O)N[C@@H](CCCNC(=N)N)C(=O)N[C@@H](CC(C)C)C(=O)N[C@@H](CO)C(=O)N[C@@H](CCC(N)=O)C(=O)N[C@@H](CCC(=O)O)C(=O)N[C@@H](CC(C)C)C(=O)N[C@@H](Cc1c[nH]cn1)C(=O)N[C@@H](CCC(=O)O)C(=O)N[C@@H](CC(C)C)C(=O)N[C@@H](CCC(N)=O)C(=O)N[C@H](C(=O)N[C@@H](Cc1ccc(O)cc1)C(=O)N1CCC[C@H]1C(=O)N[C@@H](Cc1c[nH]cn1)C(=O)N[C@H](C(=O)N[C@@H](CCC(=O)O)C(=O)N[C@H](C(=O)NCC(=O)N[C@@H](CO)C(=O)NCC(=O)N[C@H](C(=O)N[C@@H](Cc1ccc(O)cc1)C(N)=O)[C@@H](C)O)[C@@H](C)O)[C@@H](C)O)[C@@H](C)O)[C@@H](C)O
B2: [N-terminal(C20 diacid-gGlu-2xOEG), des1, 4G, 9V, 15Q, 21Q, 23Y, 30S, 31G, 32T, 33Y]mimylin (peptide)
peptide: {C20 diacid-γGlu-AEEA-AEEA}-ASGLSTAVLGRLSQELHELQTYPRTETGSGTY-NH2
SMILES: CC(C)C[C@H](NC(=O)CNC(=O)[C@H](CO)NC(=O)[C@H](C)NC(=O)COCCOCCNC(=O)COCCOCCNC(=O)CC[C@H](NC(=O)CCCCCCCCCCCCCCCCCCC(=O)O)C(=O)O)C(=O)N[C@@H](CO)C(=O)N[C@H](C(=O)N[C@@H](C)C(=O)N[C@H](C(=O)N[C@@H](CC(C)C)C(=O)NCC(=O)N[C@@H](CCCNC(=N)N)C(=O)N[C@@H](CC(C)C)C(=O)N[C@@H](CO)C(=O)N[C@@H](CCC(N)=O)C(=O)N[C@@H](CCC(=O)O)C(=O)N[C@@H](CC(C)C)C(=O)N[C@@H](Cc1c[nH]cn1)C(=O)N[C@@H](CCC(=O)O)C(=O)N[C@@H](CC(C)C)C(=O)N[C@@H](CCC(N)=O)C(=O)N[C@H](C(=O)N[C@@H](Cc1ccc(O)cc1)C(=O)N1CCC[C@H]1C(=O)N[C@@H](CCCNC(=N)N)C(=O)N[C@H](C(=O)N[C@@H](CCC(=O)O)C(=O)N[C@H](C(=O)NCC(=O)N[C@@H](CO)C(=O)NCC(=O)N[C@H](C(=O)N[C@@H](Cc1ccc(O)cc1)C(N)=O)[C@@H](C)O)[C@@H](C)O)[C@@H](C)O)[C@@H](C)O)C(C)C)[C@@H](C)O
B3: [N-terminal(C20 diacid-gGlu), des1, 4G, 9V, 15Q, 21Q, 23Y, 30S, 31G, 32T, 33Y]mimylin (peptide)
peptide: {C20 diacid-γGlu}-ASGLSTAVLGRLSQELHELQTYPRTETGSGTY-NH2
SMILES: CC(C)C[C@H](NC(=O)CNC(=O)[C@H](CO)NC(=O)[C@H](C)NC(=O)CC[C@H](NC(=O)CCCCCCCCCCCCCCCCCCC(=O)O)C(=O)O)C(=O)N[C@@H](CO)C(=O)N[C@H](C(=O)N[C@@H](C)C(=O)N[C@H](C(=O)N[C@@H](CC(C)C)C(=O)NCC(=O)N[C@@H](CCCNC(=N)N)C(=O)N[C@@H](CC(C)C)C(=O)N[C@@H](CO)C(=O)N[C@@H](CCC(N)=O)C(=O)N[C@@H](CCC(=O)O)C(=O)N[C@@H](CC(C)C)C(=O)N[C@@H](Cc1c[nH]cn1)C(=O)N[C@@H](CCC(=O)O)C(=O)N[C@@H](CC(C)C)C(=O)N[C@@H](CCC(N)=O)C(=O)N[C@H](C(=O)N[C@@H](Cc1ccc(O)cc1)C(=O)N1CCC[C@H]1C(=O)N[C@@H](CCCNC(=N)N)C(=O)N[C@H](C(=O)N[C@@H](CCC(=O)O)C(=O)N[C@H](C(=O)NCC(=O)N[C@@H](CO)C(=O)NCC(=O)N[C@H](C(=O)N[C@@H](Cc1ccc(O)cc1)C(N)=O)[C@@H](C)O)[C@@H](C)O)[C@@H](C)O)[C@@H](C)O)C(C)C)[C@@H](C)O
B4: [N-terminal(C20 diacid-gGlu), des1, 4G, 9V, 15Q, 21Q, 23Y, 30S, 31Q, 32T, 33Y]mimylin (peptide)
peptide: {C20 diacid-γGlu}-ASGLSTAVLGRLSQELHELQTYPRTETGSQTY-NH2
SMILES: CC(C)C[C@H](NC(=O)CNC(=O)[C@H](CO)NC(=O)[C@H](C)NC(=O)CC[C@H](NC(=O)CCCCCCCCCCCCCCCCCCC(=O)O)C(=O)O)C(=O)N[C@@H](CO)C(=O)N[C@H](C(=O)N[C@@H](C)C(=O)N[C@H](C(=O)N[C@@H](CC(C)C)C(=O)NCC(=O)N[C@@H](CCCNC(=N)N)C(=O)N[C@@H](CC(C)C)C(=O)N[C@@H](CO)C(=O)N[C@@H](CCC(N)=O)C(=O)N[C@@H](CCC(=O)O)C(=O)N[C@@H](CC(C)C)C(=O)N[C@@H](Cc1c[nH]cn1)C(=O)N[C@@H](CCC(=O)O)C(=O)N[C@@H](CC(C)C)C(=O)N[C@@H](CCC(N)=O)C(=O)N[C@H](C(=O)N[C@@H](Cc1ccc(O)cc1)C(=O)N1CCC[C@H]1C(=O)N[C@@H](CCCNC(=N)N)C(=O)N[C@H](C(=O)N[C@@H](CCC(=O)O)C(=O)N[C@H](C(=O)NCC(=O)N[C@@H](CO)C(=O)N[C@@H](CCC(N)=O)C(=O)N[C@H](C(=O)N[C@@H](Cc1ccc(O)cc1)C(N)=O)[C@@H](C)O)[C@@H](C)O)[C@@H](C)O)[C@@H](C)O)C(C)C)[C@@H](C)O
B5: [N-terminal(C18 diacid-gGlu-2xOEG), des1, 4G, 9V, 15Q, 21Q, 23Y, 30S, 31G, 32T, 33Y]mimylin (peptide)
peptide: {C18 diacid-γGlu-AEEA-AEEA}-ASGLSTAVLGRLSQELHELQTYPRTETGSGTY-NH2
SMILES: CC(C)C[C@H](NC(=O)CNC(=O)[C@H](CO)NC(=O)[C@H](C)NC(=O)COCCOCCNC(=O)COCCOCCNC(=O)CC[C@H](NC(=O)CCCCCCCCCCCCCCCCC(=O)O)C(=O)O)C(=O)N[C@@H](CO)C(=O)N[C@H](C(=O)N[C@@H](C)C(=O)N[C@H](C(=O)N[C@@H](CC(C)C)C(=O)NCC(=O)N[C@@H](CCCNC(=N)N)C(=O)N[C@@H](CC(C)C)C(=O)N[C@@H](CO)C(=O)N[C@@H](CCC(N)=O)C(=O)N[C@@H](CCC(=O)O)C(=O)N[C@@H](CC(C)C)C(=O)N[C@@H](Cc1c[nH]cn1)C(=O)N[C@@H](CCC(=O)O)C(=O)N[C@@H](CC(C)C)C(=O)N[C@@H](CCC(N)=O)C(=O)N[C@H](C(=O)N[C@@H](Cc1ccc(O)cc1)C(=O)N1CCC[C@H]1C(=O)N[C@@H](CCCNC(=N)N)C(=O)N[C@H](C(=O)N[C@@H](CCC(=O)O)C(=O)N[C@H](C(=O)NCC(=O)N[C@@H](CO)C(=O)NCC(=O)N[C@H](C(=O)N[C@@H](Cc1ccc(O)cc1)C(N)=O)[C@@H](C)O)[C@@H](C)O)[C@@H](C)O)[C@@H](C)O)C(C)C)[C@@H](C)O

Key:
[1] = biological target: T1, human amylin 3(a) receptor (human calcitonin receptor co-expressed with RAMP-3) (human, UniProt P30988 25-474; O60896 24-148, limits assumed); test: cell-based or functional assay
T1 sequence (looked up) 1: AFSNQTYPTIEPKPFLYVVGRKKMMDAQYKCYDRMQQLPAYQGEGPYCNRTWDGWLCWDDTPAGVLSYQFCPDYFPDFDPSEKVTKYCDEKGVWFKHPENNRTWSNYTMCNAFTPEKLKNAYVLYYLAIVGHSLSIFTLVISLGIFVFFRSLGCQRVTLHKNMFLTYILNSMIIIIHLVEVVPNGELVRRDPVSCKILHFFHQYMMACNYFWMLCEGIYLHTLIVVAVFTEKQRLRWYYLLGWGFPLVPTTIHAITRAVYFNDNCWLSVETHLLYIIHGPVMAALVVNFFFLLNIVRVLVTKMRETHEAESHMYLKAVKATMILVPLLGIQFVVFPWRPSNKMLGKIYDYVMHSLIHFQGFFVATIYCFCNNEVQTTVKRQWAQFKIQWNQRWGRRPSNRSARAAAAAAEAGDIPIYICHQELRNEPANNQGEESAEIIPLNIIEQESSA
T1 sequence (looked up) 2: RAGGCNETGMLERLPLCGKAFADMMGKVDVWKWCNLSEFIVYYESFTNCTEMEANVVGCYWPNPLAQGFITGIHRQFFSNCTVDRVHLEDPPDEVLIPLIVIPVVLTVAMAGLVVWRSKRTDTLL

[2] = biological target: T2, human calcitonin receptor (human, UniProt P30988 25-474); test: cell-based or functional assay
T2 sequence (looked up): T1 sequence (looked up) 1

Binder | hAmylin-R funct. EC50 (pM) [1] | hCTR funct. EC50 (pM) [2]
B1 | 41 pM | 27 pM
B2 | 89 pM | 52 pM
B3 | 57 pM | 65 pM
B4 | 72 pM | 49 pM
B5 | 50 pM | 22 pM
